{
  "source": "patent US20260200990A1",
  "about": "“MODIFIED LONG PEPTIDES SUITABLE FOR USE IN IMMUNISATION” (ISABELLA PHARMA B.V., priority 2022, published 2026)",
  "key": {"[1]": {"experiment": "Stability of cysteine and cystine-containing peptides in 20% v/v DMSO in WFI (UPLC-UV-MS purity)", "format": "physicochemical", "details": "room temperature", "experimental": "To examine the effect on stability of a peptide that contains cysteine(s) (non-oxidized, C) or cystine(s) (oxidized, C (C)) in a formulation matrix (20% v/v DMSO in WFI (water for injection), four non-oxidized (SEQ ID NO: 1, 2, 3 and 4) and their oxidized, cystine-containing, peptides were manufactured and individually examined in 20% v/v DMSO (aq.)\nEach peptide (2.0 mg) was dissolved in 2.0 ml of 0.09% TFA in H2O: acetonitrile (1:1, v/v). Aliquots of 200 μL were transferred to a 1 mL amber vial and then freeze dried overnight. An aliquot (0.2 mg) was then redissolved in 20% v/v DMSO in WFI (1 mL). After swirling for 2 minutes, a sample was analyzed by UPLC-UV-MS. The remainder of the sample was stored at room temperature and analyzed at different time intervals (1 h, 2 h, 3 h, 4 h). The identity and purity of the purified peptides were then determined by UPLC-UV-MS on a Waters Acquity UPLC/TQD system using an C18 Waters Acquity BEH130 analytical column (1.7 μm particle size, 2.1×150 mm, flow 0.4 mL/min) with a linear gradient (5% B to 95% B, linear gradient in 10 min). The absorbance was measured at 220 nm.\nMassLynx v4.1 was used to integrate the individual peaks of the chromatogram in the region of the observed peptide-derived signals. The following ApexTrack peak detection parameters were used for integration: peak-to-peak baseline noise was set at automatic, peak width at 5% height was set at automatic, baseline start threshold of 0.05% and baseline end threshold of 0.05%. The detect shoulder function was turned on. The following response thresholds were set: relative height of 0.20 and relative area of 0.10. After the peak of the desired peptide was identified by MS, the corresponding integral of the peak in the UV chromatogram is reported in Table 2 as percentage of the total integrated peaks, purity (% a/a).\nPurity of the non-oxidized and oxidized peptide composition over time was evaluated over 4 h. Additional mass adducts, consistent with the formation of intermolecular or intramolecular disulfide bonds, increased over time in all spectra of cysteine-containing peptides compared to cystine-containing peptides. The purity of the non-oxidized peptides set forth in SEQ ID NO: 1, 3 and 4 declined from >90% a/a at to less than 80% a/a with the lowest stability observed for SEQ ID NO: 1 with a purity of 64% a/a after 4 h. For the cystine-containing peptide analogs, the purity remained >90% a/a after 4 h."}, "[2]": {"experiment": "Stability of peptide mixtures under long term and accelerated storage (UPLC)", "format": "physicochemical", "details": "peptide in mixture of 6 peptides", "experimental": "To examine the effect on stability of peptides that contain cystine (oxidized, C (C)) present in a mixture of 6 peptides, two examples of mixtures of both non-cysteine-containing (NCC1-6) and cystine-containing (SEQ ID NO: 1-6) peptides were assessed. Typical chromatograms of the two mixtures are depicted in FIG. 2. Both mixtures were placed on two different storage conditions, ‘long term storage condition’ (i.e. −20±5° C.) and ‘accelerated storage condition’ (i.e. 5±3° C.).\nThe purity, the level of impurities, and the quantification per peptide of both mixtures are determined by reversed phase rapid UPLC using a mobile phase gradient of ACN/IPA and water with TFA, and UV detection at λ=220 nm. The method quantifies main peaks and impurities in mixtures of peptides. The reporting threshold for the method is 0.10% a/a.\nBoth mixtures of six peptides were stored under the two conditions described and by using the analytical method as described. The stability was monitored. The quantity of each of the peptides present in the mix (assay values), the purity, and the individual impurities were measured at several timepoints over a period of 3 months. […] Furthermore, focussing on the individual impurities it is shown that no significant degradation has taken place as all levels remain constant and no new impurities have formed."}},
  "note": "Ends that are not written are not given here.",
  "data": [
    {"sequence": "HLSLRGLPVCAFSSAGPCALRFTSA [Cystine(C(C)) containing SEQ ID NO: 1]", "values": [
      {"measurement": "Purity (% a/a)", "setting": "[1]; Time 0 h", "result": 97.14, "unit": "% a/a"},
      {"measurement": "Purity (% a/a)", "setting": "[1]; Time 1 h", "result": 96.67, "unit": "% a/a"},
      {"measurement": "Purity (% a/a)", "setting": "[1]; Time 2 h", "result": 95.10, "unit": "% a/a"},
      {"measurement": "Purity (% a/a)", "setting": "[1]; Time 3 h", "result": 95.97, "unit": "% a/a"},
      {"measurement": "Purity (% a/a)", "setting": "[1]; Time 4 h", "result": 95.74, "unit": "% a/a"},
      {"measurement": "Assay (net peptide content) (mg/vial)", "setting": "[2]; Initial", "result": 0.24, "unit": "mg/vial"},
      {"measurement": "Assay (net peptide content) (mg/vial)", "setting": "[2]; Storage at 5 ± 3° C., T1M", "result": 0.23, "unit": "mg/vial"},
      {"measurement": "Assay (net peptide content) (mg/vial)", "setting": "[2]; Storage at 5 ± 3° C., T2M", "result": 0.24, "unit": "mg/vial"},
      {"measurement": "Assay (net peptide content) (mg/vial)", "setting": "[2]; Storage at 5 ± 3° C., T3M", "result": 0.23, "unit": "mg/vial"},
      {"measurement": "Assay (net peptide content) (mg/vial)", "setting": "[2]; Storage at −20 ± 5° C., T2M", "result": 0.24, "unit": "mg/vial"},
      {"measurement": "Assay (net peptide content) (mg/vial)", "setting": "[2]; Storage at −20 ± 5° C., T3M", "result": 0.24, "unit": "mg/vial"}
    ]},
    {"sequence": "VLSRKYTSFPWLLGCTANWILRGTSFVYVPSALNPA [Cystine(C(C)) containing SEQ ID NO: 3] (VLSRKYTSFPWLLGC(Cys)TANWILRGTSFVYVPSALNPA) [HBV Pol fragment SLP with cysteinylated cysteine]", "values": [
      {"measurement": "Purity (% a/a)", "setting": "[1]; Time 0 h", "result": 97.44, "unit": "% a/a"},
      {"measurement": "Purity (% a/a)", "setting": "[1]; Time 1 h", "result": 97.48, "unit": "% a/a"},
      {"measurement": "Purity (% a/a)", "setting": "[1]; Time 2 h", "result": 97.28, "unit": "% a/a"},
      {"measurement": "Purity (% a/a)", "setting": "[1]; Time 3 h", "result": 97.30, "unit": "% a/a"},
      {"measurement": "Purity (% a/a)", "setting": "[1]; Time 4 h", "result": 97.34, "unit": "% a/a"},
      {"measurement": "Assay (net peptide content) (mg/vial)", "setting": "[2]; Initial", "result": 0.24, "unit": "mg/vial"},
      {"measurement": "Assay (net peptide content) (mg/vial)", "setting": "[2]; Storage at 5 ± 3° C., T1M", "result": 0.23, "unit": "mg/vial"},
      {"measurement": "Assay (net peptide content) (mg/vial)", "setting": "[2]; Storage at 5 ± 3° C., T2M", "result": 0.24, "unit": "mg/vial"},
      {"measurement": "Assay (net peptide content) (mg/vial)", "setting": "[2]; Storage at 5 ± 3° C., T3M", "result": 0.25, "unit": "mg/vial"},
      {"measurement": "Assay (net peptide content) (mg/vial)", "setting": "[2]; Storage at −20 ± 5° C., T2M", "result": 0.24, "unit": "mg/vial"},
      {"measurement": "Assay (net peptide content) (mg/vial)", "setting": "[2]; Storage at −20 ± 5° C., T3M", "result": 0.25, "unit": "mg/vial"}
    ]}
  ]
}
